Source: article PMC10617567

Test system: AIM2 (recombinant AIM2FL)
Test: EMSA
Conditions: 3' biotin; EMSA: 0.1 uM biotinylated 149 bp dsDNA, protein up to 2.5 ug (twofold dilutions), 4 C, 30 min, 5% native PAGE in 45 mM Tris-borate/1 mM EDTA; pull-down: 1 ug …

149 bp HBV dsDNA
Kd: 1.38
